Assay results from patent publication US6458929 (LICENTIA, dated 2002).

Key:
[1] = molecular target: T1, spectrin-like repeats R1-R4 (residues 267-749) of chicken smooth muscle α-actinin (chicken, UniProt P05094 267-749); assay: yeast two-hybrid
T1 construct: range 267-749; Expressed as a bait (EG202) or prey (JG4-5) fusion protein in the yeast two-hybrid assay; also called α-actinin (R1-R4)
Method: (§1) The COOH-terminal construct of myotilin was subcloned from a partial cDNA sequence obtained from the skeletal muscle library screen. The authentity of the constructs was verified by sequencing. The genotype of the S. cerevisiae strain BOY1, kindly provided by P. Ljungdahl, Ludwig Institute for Cancer Research, Stockholm, Sweden, is MATαhis3 trp1 leu2::6LexAop-LEU2 URA3::8LexAop-Gal1-LacZ. Boy1 mating type a was made using the YCPHO CUT4 plasmid. Yeast strains were grown at 30° C. in rich medium or in synthetic minimal medium with appropriate amino acid supplements. Bait and prey constructs were transformed into BOY1-yeast of both a and a mating type using the TRAFO protocol and plated on selection plates. Clones were grown to late logarithmic phase in selective medium. For analysis of fusion protein expression, yeast cells from 1 ml of overnight culture were lysed in reducing Laemmli sample buffer, the samples were boiled and analyzed by SDS-PAGE and immunoblotting. Baits and preys were grown on selection plates, replica plated together on rich media plates for mating overnight and replica plated on double (tryptophane and histidine) or triple (tryptophane, histidine and leucine) selection with or without 5-bromo-4-chloro-3-indolyl-β-D-galactopyranoside (X-gal)(Boehringer) for selection of interactions.

[2] = molecular target: T2, myotilin (full length, 498 residues) (human, UniProt Q9UBF9 1-498); assay: yeast two-hybrid
T2 construct: In the yeast two-hybrid assay, full-length myotilin was expressed as a bait (EG202) or prey (JG4-5) fusion protein; In Western blots and staining it was the endogenous muscle protein; also called full-length myotilin
T2 sequence: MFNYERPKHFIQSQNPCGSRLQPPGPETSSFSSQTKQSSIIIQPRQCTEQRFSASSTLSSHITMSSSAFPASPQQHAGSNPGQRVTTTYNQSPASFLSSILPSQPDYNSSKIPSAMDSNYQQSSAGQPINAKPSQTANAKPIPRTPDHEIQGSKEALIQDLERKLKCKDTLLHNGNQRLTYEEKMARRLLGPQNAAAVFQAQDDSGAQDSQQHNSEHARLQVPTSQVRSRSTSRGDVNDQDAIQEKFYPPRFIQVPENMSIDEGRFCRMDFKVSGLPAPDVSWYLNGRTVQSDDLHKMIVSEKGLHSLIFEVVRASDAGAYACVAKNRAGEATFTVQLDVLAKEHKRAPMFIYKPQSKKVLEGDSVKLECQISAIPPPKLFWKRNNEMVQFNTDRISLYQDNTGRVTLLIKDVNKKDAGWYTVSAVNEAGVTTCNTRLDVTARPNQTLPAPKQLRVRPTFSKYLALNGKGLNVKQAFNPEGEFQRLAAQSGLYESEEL
Method: as §1

T1 sequence (P05094 267-749 limits assumed): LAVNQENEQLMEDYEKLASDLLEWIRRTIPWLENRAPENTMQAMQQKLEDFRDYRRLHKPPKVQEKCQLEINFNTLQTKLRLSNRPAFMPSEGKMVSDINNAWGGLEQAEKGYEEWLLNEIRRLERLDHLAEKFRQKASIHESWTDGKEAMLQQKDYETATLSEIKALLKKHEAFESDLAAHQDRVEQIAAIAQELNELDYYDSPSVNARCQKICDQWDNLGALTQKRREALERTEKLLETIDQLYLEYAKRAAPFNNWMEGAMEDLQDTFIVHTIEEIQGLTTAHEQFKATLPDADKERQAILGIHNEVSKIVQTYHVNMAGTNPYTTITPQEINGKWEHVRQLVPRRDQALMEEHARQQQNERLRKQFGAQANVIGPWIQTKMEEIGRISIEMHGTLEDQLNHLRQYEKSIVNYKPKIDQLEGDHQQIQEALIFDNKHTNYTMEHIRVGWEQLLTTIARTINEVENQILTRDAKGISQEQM

B1: myotilin215-498 (other)
chain: SEHARLQVPTSQVRSRSTSRGDVNDQDAIQEKFYPPRFIQVPENMSIDEGRFCRMDFKVSGLPAPDVSWYLNGRTVQSDDLHKMIVSEKGLHSLIFEVVRASDAGAYACVAKNRAGEATFTVQLDVLAKEHKRAPMFIYKPQSKKVLEGDSVKLECQISAIPPPKLFWKRNNEMVQFNTDRISLYQDNTGRVTLLIKDVNKKDAGWYTVSAVNEAGVTTCNTRLDVTARPNQTLPAPKQLRVRPTFSKYLALNGKGLNVKQAFNPEGEFQRLAAQSGLYESEEL
notes: Expressed in the yeast two-hybrid assay as a prey fusion protein in JG4-5; it could not be expressed as a bait; also called NH2-terminal deletion construct containing the Ig-domains
binding result [1]: no binding
binding result [2]: binds
